These results are taken from patent US11207289B2, “Use of benzofuran lignans to induce IL-25 expression and suppress mammary tumor metastasis” (ACADEMIA SINICA, priority 2016, dated 2021).

One experiment has as its system IL-25. Put plainly: IL-25 expression in lung fibroblasts, 4T1 tumor resection model (IF staining, flow cytometry). It is filed as in vivo, mice. As to the method: BALB/c mice were subcutaneously injected with 4T1-Luc2 cells (5×10^5/100 μl PBS/mouse) into the fourth mammary fat pad under isoflurane anesthesia. Tumor growth was monitored by measuring the tumor volume according to the formula: volume=length×(width)^2/2. After tumors were established (180-200 mm^3) on day 14, test mice were divided into different groups (8 mice/group) and subjected to different treatments. At 15 days post tumor cell implantation, primary 4T1 tumors in situ were surgically removed by a tumor resection process. For drug treatment, mice were administered with different agents, including vehicle-control (PBS), mouse IL-25 protein (10 μg/kg, ProSpec, Vineland, N.J.), Q2-3 (2, 20 or 100 μg/kg) or docetaxel (2 mg/kg; Sigma-Aldrich), by intravenous injection for 3 weeks (3 injections/week) post tumor resection. For in vivo neutralization of mouse IL-25 activity, mice were treated intraperitoneally with either 100 μg anti-mouse IL-25 (IL-17E) antibody (clone 35B; Biolegend) or isotype control rat IgG (100 μg; rat, IgG1κ; Biolegend) at days 0, 3, 6, 9, 12, 15, 18 post tumor resection. To detect metastasis of human MDA-MD-231-Luc2 tumor cells, nude mice were injected subcutaneously with 5×10^5 MDA-MD-231-Luc2 cells into the mammary fat pad under isoflurane anesthesia. After tumors were established (250-350 mm^3) on day 24, test mice were divided into different groups (8 mice/group) and subjected to different treatments. At 25 days post tumor cell implantation, primary MDA-MD-231-Luc2 tumors in situ were surgically removed by a tumor resection process. For drug treatment, mice were administered with PBS (vehicle-control), Q2-3 (100 μg/kg), docetaxel (5 mg/kg) or Q2-3 (100 μg/kg)+docetaxel (5 mg/kg), by intravenous injection for 3 weeks (3 injections/week) post tumor resection. To monitor the progression of mouse (4T1) or human (MDA-MD-231) metastatic tumors, test mice treated with different drugs/agents were compared for their tumor metastatic activity and survival rate aftern another 8 weeks. Bioluminescence signals from the 4T1-luc2 tumor cells in test mice were analyzed using a non-invasive IVIS imaging system (Calipers, Hopkinton, Mass.) after intraperitoneal injection of 150 mg/kg D-luciferin (NanoLight technology, Pinetop, Ariz.).
Lung tissue specimens obtained from each tumor-resected mouse were fixed with 4% formalin and embedded in paraffin. For histological comparison, 6 μm-thick tissue sections were made and stained with hematoxylin and eosin (H&E). For immunofluorescence staining, fixed tissue sections were initially immersed in boiling sodium citrate buffer (0.01 M sodium citrate buffer, pH 6.0) for 30 min Lung tissue sections were blocked with 5% nonfat milk, and incubated with anti-FSP-1 antibody (1:200 dilution; Millipore), FITC-conjugated anti-CD206 antibody (1:200 dilution; Biolegend) or PE-conjugated anti-IL-25 antibody (1:100; R&D) in 1% nonfat milk for 1 hour at room temperature. Sections were then washed with PBS containing 0.1% Tween 20. To detect primary antibodies, some sections were incubated with FITC-conjugated anti-mouse-IgG (1:200; Jackson Immunoresearch, West Grove, Pa.) for FSP-1. 4′,6-Diamidino-2-phenylindole dihydrochloride (1 μg/ml; Sigma-Aldrich) was used to stain the nuclei. Fluorescence microscopy evaluation of immunostained tissue sections was performed using a Zeiss Axiovert 200 M microscope (Carl Zeiss, Heidelberg, Germany) Images were captured with a digital camera (Orca ER, Hamamatsu) and processed using Axiovision 4.6.3 (Carl Zeiss).
For detection of myeloid derived suppressor cells (MDSCs), cells from mouse lung tissue in each group were collected and stained for 30 min at 4° C. with antibodies against specific cell markers, including FITC-conjugated anti-mouse CD11b (for cell surface), APC-Cy7 conjugated anti-mouse Ly-6C and PE conjugated anti-mouse Ly-6G, (both for intracellular staining). All three antibodies were obtained from Biolegend, (San Diego, Calif.). […]

The next experiment relates to 4T1 cells. Put plainly: MTT growth activity of 4T1 cells in fibroblast conditioned media. It is filed as cell-based, mouse. The conditions noted are these: MTT at 5 days; media applied every 24 hours; IL-25 protein 100 ng/ml. As to the method:
(§1) M10, WI38, SKBR3, and MDA-MB-231 cells (1×10^5 cells/ml) dispensed in 96-well plates were incubated with vehicle or test compounds (Q2-3) for 24 h or 72 h in corresponding basal medium in a 5% CO2 incubator. To evaluate the effect of secreted IL-25 from Q2-3-treated fibroblasts on growth activity of mammary tumor cells, 4T1 and MDA-MB-231 cells (1×10^4 cells/ml) dispensed in 96-well plates were incubated with control medium or different fibroblast conditioned media (200 μl/ml) which was changed daily for 5 days. All treatments were performed in triplicate cell cultures. The growth activity of cells was assayed using a 3-(4, 5-dimethythiazol-2-yl)-2, 5-diphenyl tetrazolium bromide (MTT; Sigma-Aldrich) colorimetric method. The absorbance at 570 nm (A570) was measured using a multiwall scanning spectrophotometer.
(§2) To pull down and deplete IL-25 protein molecules in 3T3 or MDA-MB-231 cell conditioned media, the Dynabeads antibody coupling kit (Life Technology; 14311D) was used according to the manufacturer's recommendations, yielding 10 mg/ml anti-IL25 antibody (ProteinTech, Chicago, Ill.)-coupled beads. The rabbit IgG (ProteinTech, Chicago, Ill.) was used as an isotype control antibody. […] The antibody-pulled down proteins from 3T3-CM, NHDF-CM or WI38-CM, were detected for the content of secreted IL-25 protein in each conditioned medium using western blot analysis. […]

Another experiment relates to MDA-MB-231 cells. Briefly: MTT growth activity of MDA-MB-231 cells in fibroblast conditioned media. The class given is cell-based, human. The conditions noted are these: MTT at 5 days; media applied every 24 hours; IL-25 protein 100 ng/ml. How it is done: as §1, §2
For a further experiment, the system named is caspases 8 and 3. Briefly: Western blot of cleavage of caspases 8 and 3 in MDA-MB-231 cells. The class given is cell-based, human. As to the method:
MDA-MB231 and MCF-7 cells were seeded in 6-well plate at 10^5 cells/well for 24 h before transfection. siRNAs used for knockdown of human IL-25 receptor (IL25-RB) were purchased from Biotools (Taiwan, ROC) as follows: IL-17RB-homo-448 (IL-25R-1 siRNA); IL-17RB-homo-519 ([…]); IL-17RB-homo-956 ([…]); negative control (Neg). At the beginning of transfection, each test IL25R siRNA oligomers (100 pmol) was diluted in 250 μl Opti-MEM I Reduced Serum Medium. Aliquots of 5 μl Lipofectamine 2000 transfection reagent (Invitrogen) were diluted with 250 μl Opti-MEM I Reduced Serum Medium. Diluted oligomers were mixed gently with the diluted Lipofectamine 2000 and incubated for 20 min at room temperature. The oligomer-Lipofectamine 2000 complexes were subsequently added to each well containing cells and medium. Cells were incubated at 37° C. for 72 h until test cells were ready to be treated with IL25 cytokine or a different CM.
Cell lysates of 3T3, WI38, NHDF, MDA-MB-231, MCF-10A and MCF-7 or the IL-25-pulled down protein lysates from 3T3, WI38 or NHDF conditioned media were resolved by SDS PAGE using 8, 10 or 15% stepwise gels. […] Loading of equal amounts of protein was assessed using the mouse β-actin protein as a reference. […] Quantification of protein in luminescent bands was performed using ImageJ software. […]

Consider `CC(=O)O[C@@]12CO[C@@H]1C[C@H](O)[C@@]1(C)C(=O)[C@H](O)C3=C(C)[C@@H](OC(=O)[C@H](O)[C@@H](NC(=O)OC(C)(C)C)c4ccccc4)C[C@@](O)([C@@H](OC(=O)c4ccccc4)[C@H]21)C3(C)C` [DT, docetaxel, reference compound], for which the “total FSP-1+ER-TR7+ fibroblast population in lung” value in the experiment on IL-25 (3 weeks post tumor resection, PBS control 5.2%) is on record as “did not increase”. The “cell population of IL-25+ fibroblasts (FSP-1+ER-TR7+IL-25+ cells) in lung” value in the experiment with IL-25 (3 weeks post tumor resection, PBS control 16.7%) was “did not increase”. For the same molecule, the “IL-25 expression in lung fibroblasts (IF staining)” value in the experiment with IL-25 (Q2-3 100 μg/kg, 21 days post tumor resection) is “little or no IL-25 expression”.

B1: IL-25: human and mouse IL-25 recombinant protein (protein, UniProt Q9H293 33-177, looked up)
Interleukin-25: YSHWPSCCPSKGQDTSEELLRWSTVPVPPLEPARPNRHPESCRASEDGPLNSRAISPWRYELDRDLNRLPQDLYHARCLCPHCVSLQTGSHMDPRGNSELLYHNQTVFYRRPCHGEKGTHKGYCLERRLYRVSLACVCVRPRVMG
modifications: also mouse IL-25
notes: human and mouse IL-25 recombinant protein
Take B1: the “growth activity of 4T1 cells” value in the experiment on 4T1 cells is “decreased the growth activity”. Further, the “growth activity of MDA-MB-231 cells” value in the experiment with MDA-MB-231 cells is “decreased the growth activity”. The “cleavage of caspases 8 and 3” value with caspases 8 and 3 (MDA-MB-231, IL-25 100 ng/ml, 24 h) was “resulted in the cleavage of caspases 8 and 3”. For the same molecule, in the experiment with caspases 8 and 3 (MDA-MB-231 treated with IL-25R siRNA), the “cleavage of caspases 8 and 3 in cells treated with IL-25R siRNA” value is recorded as “not able to induce”.
